Reference: patent US20220296736A1, “ADMINISTRATION OF THERAPEUTIC AGENTS TO BRAIN AND OTHER CELLS AND TISSUE” (priority 2019, published 2022)

Experiments:
[1] = system: recombinant human VEGF-A; experiment: Functional binding assay of BV and BVDFO to VEGF (Bevacizumab ELISA); conditions: unmodified BV versus BVDFO conjugate
Method: The ELISA assay devoted for assessment of bevacizumab concentration has been used to assess the binding capacity of unmodified BV and BVDFO conjugate. The assay was carried out using Bevacizumab ELISA (ImmunoGuide, Eagle Bioscience) according to the manufacturer protocol. Briefly, 100 μg/mL, 50 μg/mL, 25 μg/mL of BV and BVDFO, as well as the provided standards were diluted 1:1000, and pipetted in 6 repetitions into the wells of the microtiter plate coated with recombinant human VEGF-A. Plate was incubated for 60 min in the room temperature and washed 3× with buffer. Next, horseradish peroxidase (HRP) conjugated anti-human IgG monoclonal antibody was added to each well, and incubated in room temperature for 30 min. Plate was washed 3× with the buffer and ready-to-use TMB substrate solution was added to each well. After 15 min incubation in dark, stop solution was added to each well and the color change from blue to yellow was observed. The absorbance at 450 nm was read using Victor 3 plate reader (Perkin Elmer) within 10 min after addition of the stop solution and expressed as optical density (OD).

[2] = Intravital 2PM visualization of cortical BBBO and drug extravasation; type: in vivo, SCID mice; conditions: IA infusion with 25% mannitol; 7 ROIs
Method: Before microscopy, isoflurane anesthetized mice (n=5) with cranial window and with arterial access as described above were stabilized in a custom-made frame immobilizing their head. The mice were positioned under an epi-fluorescent microscope and a 10× magnification objective was used for capturing images at frequency of 1-2 Hz. Saline solution of 0.001 mM rhodamine (0.58 kDa) was injected using a syringe infusion pump at the rate of 0.15 ml/min over 1 min via the ICA microcatheter to visualize trans-catheter perfusion. When the cortex was not perfused, the cCCA was closed temporarily for 20 s by engaging the weights.
For 2PM to visualize OBBBO and drug penetration, mice were placed under a multiphoton microscope (FV1000MPE, Olympus, Tokyo, Japan). A 10× objective (UPlanSApo, 0.40 NA and 3.1 mm working distance) was centered over the cranial window and used to collect time series images of 800×800 pixels (1.59 μm/pixel; 2 μs/pixel; 100 frames) at an estimated depth of 150 um below the cortical surface. Rhodamine (0.002 mM) mixed with BV-FITC (0.01 mM) was injected prior to OBBBO to collect baseline data and optimize cortical perfusion (temporary cCCA closure). Then, 25% mannitol mixed with rhodamine and BV-FITC was delivered at the rate of 0.15 ml/min for 4 mins in total. […]

[3] = Histological assessment of BV biodistribution and extravasation; type: in vivo, SCID mice; conditions: for localisation in brain tissue: one hour after delivery
Method: For histological evaluation on the safety of OBBBO in the cortex, 7 days after surgery, animals (n=4) were anesthetized and perfused transcardially with 5% sucrose, followed by 4% paraformaldehyde (PFA). The brains were rapidly removed and post-fixed overnight in 4% PFA at 4° C. The brains were cryopreserved in 30% sucrose and 30-μm thick coronal sections were cryosectioned. Immunohistochemistry for anti-GFAP (1:250, Dako) and anti-Iba1 (1:250, Wako) was performed to assess the neuroinflammation. The secondary antibody was goat anti-rabbit (Alexa Fluor-488, 1:200, Molecular Probes). For detecting the biodistribution of infused BV, the mice with OBBBO (n=4) and without OBBBO (n=3) were sacrificed 1 hour after administration. The brains were cryosectioned at 30 μm and the slices were stained with goat anti-human secondary antibody (Alexa Fluor-488, 1:200, Invitrogen). All the fluorescent images were acquired using an inverted microscope (Zeiss, Axio Observer Z1).
A p-value less than 0.05 was considered significant.

[4] = Safety of IA mannitol-induced BBBO in the cortex (MRI and GFAP/IBA1 histology); type: in vivo, SCID mice
[5] = mouse, in vivo
Method: In the first step, we conjugated BV with DFO chelator and characterized resulting conjugate by means of its molecular weight and binding to vascular endothelial growth factor (VEGF). […] Next day PET-CT imaging was repeated and animals were sacrificed to perform ex vivo biodistribution of ^89ZrBVDFO.
(§1) All animal procedures were carried out under protocols approved by the Johns Hopkins Animal Care and Use Committee. Under general anesthesia with 1-2% isoflurane a catheter was placed in internal carotid artery of C3HeB/FeJ (Jackson, stock No. 000658), male, 6-8 weeks old mice, as we described previously (22) and animal was transferred to the PET-CT scanner. […] A CT scan (512 projections) was performed after dynamic scan for anatomical co-registration. PET/CT imaging was repeated around 24 h post infusion. PET data were reconstructed using the two-dimensional ordered subsets-expectation maximization algorithm (2D-OSEM) and corrected for dead time and radioactive decay. Presented whole body images were generated using Amira® (FEI, Hillsboro, Oreg.) and dynamic scans (brain and heart radioactivity accumulation) and radioactivity distribution in different brain regions were analyzed with PMOD 4.3 (PMOD Technologies LLC, Zurich, Switzerland).

[6] = mouse, in vivo; remark: listed apart in the source
Method: In the first step, we conjugated BV with DFO chelator and characterized resulting conjugate by means of its molecular weight and binding to vascular endothelial growth factor (VEGF).
as §1

[7] = mouse, in vivo, iv; cited from earlier work
[8] = human, in vivo, iv; cited from earlier work

Sequence of recombinant human VEGF-A (P15692 207-320 limits assumed): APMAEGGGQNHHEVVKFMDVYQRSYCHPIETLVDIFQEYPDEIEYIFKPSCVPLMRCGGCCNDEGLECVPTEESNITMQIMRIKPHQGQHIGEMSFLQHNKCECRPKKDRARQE

With “BVDFO: bevacizumab conjugated with p-SCN-Bn-DFO chelator” the “binding to VEGF” value [1] was “did not affect its targeting properties”.
In the case of rhodamine, the “extravasation upon BBBO compared to BV-FITC (2PM fluorescence intensity)” value [2] is reported as “earlier onset and higher intensity of extravasation”.
In the case of “BV: AVASTIN (BV, Roche), bevacizumab, antibody binding VEGF”, the “localisation in brain tissue” value ([3]; IA delivery with OBBBO) is reported as “both blood vessels and parenchyma”, the “localisation in brain tissue” value ([3]; IA delivery with intact BBB (BBBI)) is reported as “localized within the blood vessels” and the “uptake in ipsilateral vs. contralateral hemisphere (fluorescence intensity)” value ([3]; both groups (BBBI and OBBBO)) is reported as “significantly higher uptake”.
With `OC[C@@H](O)[C@@H](O)[C@H](O)[C@H](O)CO` [mannitol] the “brain damage after cortical BBBO induction (MRI and histology)” value ([4]; 3 and 7 days after BBBO) was “did not cause brain damage”, the “astrocytic or microglial activation in the BBBO region (GFAP and IBA-1 staining)” value ([4]; 7 days post BBBO, ipsilateral versus contralateral) was “no evidence of astrocytic or microglial activation” and the “brain damage after excessive exposure (T2 hyperintensity)” value ([4]; continuous 4 min-infusion) was “led to brain damage”.
For “89ZrBVDFO: bevacizumab conjugated with on average 3 molecules of DFO chelator and radiolabeled with 89Zr”, the “radioactivity accumulation in contralateral hemisphere” value [5] was “no radioactivity accumulation”, the “signal in the contralateral hemisphere” value [5] was “negligible signal” and the “radioactivity in the entire brain” value ([5]; iv) was 2.91 % ID/cc. For the same compound, the “clearance from the brain compared with 89ZrNB(DFO)2” value [6] was “slower”, the “accumulation in the brain and tumors” value [7] was “no accumulation” and the “uptake in diffuse intrinsic pontine glioma” value [8] was “some uptake in five out of seven patients”.
